Measured values reported in paper doi:10.1101/2020.06.17.157057.
Read-outs that look alike come from different tables or passages of the source.

Key:
[1] = target: Maltose Binding Protein (MBP), tethered between beads by DNA handles [MBP: P0AEX9]; test: optical tweezers
[2] = target: Maltose Binding Protein (MBP), tethered between beads by DNA handles [MBP: P0AEX9]; test: optical tweezers; remark: listed apart in the source

tethers that switched to a prolonged unfolded state [1] [%] | tethers that switched to a prolonged unfolded state [2] [%] | Substance
50 | 20 | GroEL (wild type) (from UniProt P0A6F5 2-525) (natural protein)
30 | – | GroEL398A (slowly hydrolyzing GroEL) (from UniProt P0A6F5 1-548) (natural protein)
